Measurements as given in patent US20090029376.

Assays:
Experiment in all cases: cleavage_in_vitro
[1] = target: T1, BamHI-HF E163A/E167T (Bacillus amyloliquefaciens) (UniProt P23940); settings: NEB4, 37 C
T1 sequence: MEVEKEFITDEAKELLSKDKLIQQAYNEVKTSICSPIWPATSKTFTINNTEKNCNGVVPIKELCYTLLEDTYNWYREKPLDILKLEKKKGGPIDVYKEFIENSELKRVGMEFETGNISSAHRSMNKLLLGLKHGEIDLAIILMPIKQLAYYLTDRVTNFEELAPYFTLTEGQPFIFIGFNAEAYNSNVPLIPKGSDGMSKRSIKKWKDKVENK

[2] = system: T2, BspQI (Bacillus sphaericus); settings: NEB4, 50 C
T2 sequence: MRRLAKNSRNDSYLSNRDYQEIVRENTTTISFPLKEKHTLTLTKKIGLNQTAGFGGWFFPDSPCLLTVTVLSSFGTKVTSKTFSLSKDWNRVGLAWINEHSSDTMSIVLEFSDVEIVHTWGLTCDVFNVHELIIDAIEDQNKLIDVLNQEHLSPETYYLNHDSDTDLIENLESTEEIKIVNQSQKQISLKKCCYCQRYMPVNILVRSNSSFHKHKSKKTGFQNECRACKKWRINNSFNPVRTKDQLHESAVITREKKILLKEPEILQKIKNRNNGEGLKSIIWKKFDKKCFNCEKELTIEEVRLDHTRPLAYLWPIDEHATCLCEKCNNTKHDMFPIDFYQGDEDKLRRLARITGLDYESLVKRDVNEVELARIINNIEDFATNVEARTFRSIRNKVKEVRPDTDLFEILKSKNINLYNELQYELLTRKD

[3] = system: T3, BstXI (Bacillus stearothermophilus); settings: NEB4, 55 C; Table 2 prints 4
T3 sequence: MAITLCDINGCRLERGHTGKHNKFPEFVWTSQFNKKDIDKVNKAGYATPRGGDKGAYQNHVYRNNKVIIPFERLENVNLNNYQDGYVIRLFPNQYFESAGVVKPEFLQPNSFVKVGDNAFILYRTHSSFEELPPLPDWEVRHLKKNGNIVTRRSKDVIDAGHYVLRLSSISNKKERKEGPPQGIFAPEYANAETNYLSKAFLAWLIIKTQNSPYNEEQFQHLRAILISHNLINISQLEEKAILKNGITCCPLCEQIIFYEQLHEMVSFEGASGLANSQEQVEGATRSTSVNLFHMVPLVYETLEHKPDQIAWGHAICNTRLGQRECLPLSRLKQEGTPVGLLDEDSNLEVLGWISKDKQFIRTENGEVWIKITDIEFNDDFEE

[4] = target: T4, HindIII (Haemophilus influenzae Rd) (UniProt P43870); settings: NEB4, 37 C
T4 sequence: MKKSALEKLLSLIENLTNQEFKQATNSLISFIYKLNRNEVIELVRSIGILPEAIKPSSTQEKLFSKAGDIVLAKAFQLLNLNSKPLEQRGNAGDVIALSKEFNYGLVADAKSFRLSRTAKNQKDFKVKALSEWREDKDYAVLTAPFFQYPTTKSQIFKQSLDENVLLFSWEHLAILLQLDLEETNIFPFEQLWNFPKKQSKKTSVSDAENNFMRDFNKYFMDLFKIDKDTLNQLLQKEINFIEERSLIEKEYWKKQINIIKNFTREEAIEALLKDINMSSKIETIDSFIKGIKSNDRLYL

[5] = system: T5, NcoI (Nocardia corallina); settings: NEB4, 37 C
T5 sequence: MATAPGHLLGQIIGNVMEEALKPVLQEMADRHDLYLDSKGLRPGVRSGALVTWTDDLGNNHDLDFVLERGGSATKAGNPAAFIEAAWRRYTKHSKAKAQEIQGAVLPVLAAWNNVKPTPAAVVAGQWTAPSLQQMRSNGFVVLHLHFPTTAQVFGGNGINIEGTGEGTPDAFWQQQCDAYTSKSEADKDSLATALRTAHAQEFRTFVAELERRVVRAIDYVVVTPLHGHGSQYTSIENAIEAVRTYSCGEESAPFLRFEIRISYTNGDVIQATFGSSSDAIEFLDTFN

[6] = system: T6, SspI-HF Y98F (Sphaerotilus species); settings: NEB4, 37 C
T6 sequence: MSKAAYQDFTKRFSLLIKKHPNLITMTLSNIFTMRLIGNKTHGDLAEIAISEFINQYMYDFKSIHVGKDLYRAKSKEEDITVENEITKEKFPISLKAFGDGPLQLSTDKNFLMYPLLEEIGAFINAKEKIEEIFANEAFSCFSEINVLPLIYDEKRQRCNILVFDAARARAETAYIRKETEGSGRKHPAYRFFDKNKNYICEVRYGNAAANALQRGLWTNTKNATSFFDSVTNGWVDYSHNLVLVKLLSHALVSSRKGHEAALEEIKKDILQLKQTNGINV

Substance lambda phage DNA has an activity (fidelity index) [1] of over 4000, an activity (fidelity index) [2] of 4 and an activity (fidelity index) [3] of 32. The activity (fidelity index) [4] was 32, the activity (fidelity index) [5] was 32 and the activity (fidelity index) [6] was 500.
